Tests used:
[1] = target: SHP2-C SH2; test: SH2 binding enrichment of the phosphorylated peptide, bacterial display (enrichment ratio); higher = better substrate or ligand; peptides without Tyr show the background
[2] = target: c-Src SH2; test: as above
[3] = target: Grb2 SH2 (UniProt P62993); test: as above
[4] = system: AncSZ; test: phosphorylation enrichment, bacterial display (enrichment ratio); higher = better substrate or ligand; peptides without Tyr show the background
[5] = target: Jak2 (UniProt O60674); test: as above
[6] = target: MERTK (UniProt Q12866); test: as above
[7] = system: c-Abl (mouse); test: as above
[8] = target: EPHB2 (UniProt P29323); test: as above
[9] = system: Fer (mouse); test: as above
[10] = system: c-Src; test: as above
[11] = target: EPHB1 (UniProt P54762); test: as above
[12] = target: FGFR1 (UniProt P11362); test: as above
[13] = target: Fyn (UniProt P06241); test: as above
[14] = target: Fes (UniProt P07332); test: as above
[15] = target: Hck (UniProt P08631); test: as above
[16] = target: FGFR3 (UniProt P22607); test: as above
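For SH2 binding enrichment of the phosphorylated peptide, bacterial display in this document: peptide library displayed on the E. coli surface as eCPX fusions, selected cells deep-sequenced, score is each peptide's frequency after selection divided by its frequency in the input.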
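For phosphorylation enrichment, bacterial display in this document: 11-residue human phosphosite peptides and single-mutation variants displayed on the E. coli surface, counted by deep sequencing, each peptide's frequency after selection divided by its frequency in the unselected input library; frequency after pTyr selection over input frequency; kinase dosed for 20-30% of maximal phosphorylation in three min.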

Sequence of EPHB1 (P54762 whole entry, looked up): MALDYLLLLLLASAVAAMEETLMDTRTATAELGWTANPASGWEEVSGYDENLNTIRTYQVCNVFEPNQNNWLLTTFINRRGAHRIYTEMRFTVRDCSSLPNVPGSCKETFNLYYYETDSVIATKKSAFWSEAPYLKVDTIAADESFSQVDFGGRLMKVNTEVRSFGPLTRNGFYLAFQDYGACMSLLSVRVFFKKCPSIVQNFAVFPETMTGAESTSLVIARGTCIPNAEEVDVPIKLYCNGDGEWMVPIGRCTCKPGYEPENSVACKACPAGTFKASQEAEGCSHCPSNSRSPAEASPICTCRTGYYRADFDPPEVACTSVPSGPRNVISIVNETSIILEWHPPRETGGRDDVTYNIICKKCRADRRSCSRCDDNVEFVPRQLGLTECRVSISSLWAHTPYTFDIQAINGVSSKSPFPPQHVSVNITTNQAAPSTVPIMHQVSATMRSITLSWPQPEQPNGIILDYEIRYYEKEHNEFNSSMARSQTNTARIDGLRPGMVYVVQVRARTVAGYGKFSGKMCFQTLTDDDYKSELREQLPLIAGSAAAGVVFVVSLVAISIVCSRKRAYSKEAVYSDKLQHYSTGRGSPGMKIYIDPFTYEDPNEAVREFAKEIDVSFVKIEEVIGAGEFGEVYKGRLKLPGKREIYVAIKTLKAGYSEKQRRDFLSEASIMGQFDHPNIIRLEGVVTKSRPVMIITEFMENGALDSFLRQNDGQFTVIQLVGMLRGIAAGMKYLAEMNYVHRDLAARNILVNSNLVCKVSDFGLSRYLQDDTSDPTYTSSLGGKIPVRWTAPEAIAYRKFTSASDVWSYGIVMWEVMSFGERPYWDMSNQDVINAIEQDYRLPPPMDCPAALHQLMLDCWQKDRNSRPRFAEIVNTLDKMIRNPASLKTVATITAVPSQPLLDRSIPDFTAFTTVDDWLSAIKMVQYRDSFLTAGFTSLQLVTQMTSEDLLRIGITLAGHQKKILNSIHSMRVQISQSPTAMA
Sequence of Hck (P08631 whole entry, looked up): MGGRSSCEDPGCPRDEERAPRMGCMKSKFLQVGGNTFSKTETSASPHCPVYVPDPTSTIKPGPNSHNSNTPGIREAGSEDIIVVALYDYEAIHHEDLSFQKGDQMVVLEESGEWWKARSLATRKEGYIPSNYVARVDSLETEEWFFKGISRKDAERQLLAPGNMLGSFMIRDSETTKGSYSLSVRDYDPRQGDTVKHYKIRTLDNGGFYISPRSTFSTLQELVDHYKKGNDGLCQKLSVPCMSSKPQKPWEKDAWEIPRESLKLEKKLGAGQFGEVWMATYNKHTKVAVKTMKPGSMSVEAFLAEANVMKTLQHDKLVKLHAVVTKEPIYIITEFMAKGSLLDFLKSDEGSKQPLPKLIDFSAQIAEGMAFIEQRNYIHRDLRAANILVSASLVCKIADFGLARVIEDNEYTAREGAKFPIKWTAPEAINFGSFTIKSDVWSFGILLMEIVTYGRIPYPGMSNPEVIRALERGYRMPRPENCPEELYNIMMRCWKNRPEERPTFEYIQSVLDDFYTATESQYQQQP
Sequence of Jak2 (O60674 whole entry, looked up): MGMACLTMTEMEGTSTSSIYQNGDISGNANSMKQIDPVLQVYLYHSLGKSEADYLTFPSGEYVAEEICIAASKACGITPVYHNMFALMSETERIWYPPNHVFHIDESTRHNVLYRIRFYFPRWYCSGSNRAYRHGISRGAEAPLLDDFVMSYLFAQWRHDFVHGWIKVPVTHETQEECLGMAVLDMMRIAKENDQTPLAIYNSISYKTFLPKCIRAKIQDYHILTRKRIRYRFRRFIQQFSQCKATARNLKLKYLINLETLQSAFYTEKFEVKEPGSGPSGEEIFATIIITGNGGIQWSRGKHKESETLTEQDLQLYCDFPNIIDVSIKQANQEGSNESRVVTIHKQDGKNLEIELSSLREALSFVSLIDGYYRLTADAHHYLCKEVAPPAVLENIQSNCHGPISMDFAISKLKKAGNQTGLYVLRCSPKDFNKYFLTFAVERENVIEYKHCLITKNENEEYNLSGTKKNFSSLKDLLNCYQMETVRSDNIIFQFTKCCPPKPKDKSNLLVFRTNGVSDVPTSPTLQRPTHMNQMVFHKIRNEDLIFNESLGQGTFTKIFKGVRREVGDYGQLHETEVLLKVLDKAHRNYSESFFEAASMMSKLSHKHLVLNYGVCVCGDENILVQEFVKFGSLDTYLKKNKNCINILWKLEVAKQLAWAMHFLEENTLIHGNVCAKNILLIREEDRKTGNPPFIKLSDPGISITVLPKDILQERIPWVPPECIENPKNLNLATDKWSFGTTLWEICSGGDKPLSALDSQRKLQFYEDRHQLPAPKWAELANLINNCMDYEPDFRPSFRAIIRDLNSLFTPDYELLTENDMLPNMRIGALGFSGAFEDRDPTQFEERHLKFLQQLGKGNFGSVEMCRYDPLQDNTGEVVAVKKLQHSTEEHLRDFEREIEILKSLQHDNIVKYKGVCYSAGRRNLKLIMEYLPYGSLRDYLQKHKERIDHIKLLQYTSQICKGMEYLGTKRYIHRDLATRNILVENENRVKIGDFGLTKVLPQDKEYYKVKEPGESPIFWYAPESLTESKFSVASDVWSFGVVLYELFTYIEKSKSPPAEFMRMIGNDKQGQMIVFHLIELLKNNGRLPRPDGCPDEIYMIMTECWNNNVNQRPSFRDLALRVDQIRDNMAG
Sequence of Grb2 SH2 (P62993 whole entry, looked up): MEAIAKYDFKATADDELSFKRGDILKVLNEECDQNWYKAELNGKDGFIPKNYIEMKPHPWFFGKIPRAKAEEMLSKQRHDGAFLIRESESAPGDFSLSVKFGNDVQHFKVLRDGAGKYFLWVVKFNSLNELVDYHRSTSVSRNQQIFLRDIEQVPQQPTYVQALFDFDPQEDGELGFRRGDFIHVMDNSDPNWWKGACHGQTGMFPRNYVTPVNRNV
Sequence of Fyn (P06241 whole entry, looked up): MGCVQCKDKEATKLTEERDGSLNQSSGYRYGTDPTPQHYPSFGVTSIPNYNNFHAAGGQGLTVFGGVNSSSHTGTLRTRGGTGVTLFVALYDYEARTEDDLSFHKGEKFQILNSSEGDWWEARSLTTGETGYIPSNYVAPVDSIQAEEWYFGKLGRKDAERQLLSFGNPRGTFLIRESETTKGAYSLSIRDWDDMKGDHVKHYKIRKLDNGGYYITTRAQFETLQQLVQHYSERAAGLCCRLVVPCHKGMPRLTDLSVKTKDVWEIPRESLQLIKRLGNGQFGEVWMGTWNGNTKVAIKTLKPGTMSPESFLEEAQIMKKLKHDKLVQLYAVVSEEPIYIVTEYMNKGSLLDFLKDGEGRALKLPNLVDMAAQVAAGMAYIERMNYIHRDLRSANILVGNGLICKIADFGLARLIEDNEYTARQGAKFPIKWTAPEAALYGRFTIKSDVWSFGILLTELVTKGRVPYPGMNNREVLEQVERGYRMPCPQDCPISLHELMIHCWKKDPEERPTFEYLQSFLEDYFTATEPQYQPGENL
Sequence of MERTK (Q12866 whole entry, looked up): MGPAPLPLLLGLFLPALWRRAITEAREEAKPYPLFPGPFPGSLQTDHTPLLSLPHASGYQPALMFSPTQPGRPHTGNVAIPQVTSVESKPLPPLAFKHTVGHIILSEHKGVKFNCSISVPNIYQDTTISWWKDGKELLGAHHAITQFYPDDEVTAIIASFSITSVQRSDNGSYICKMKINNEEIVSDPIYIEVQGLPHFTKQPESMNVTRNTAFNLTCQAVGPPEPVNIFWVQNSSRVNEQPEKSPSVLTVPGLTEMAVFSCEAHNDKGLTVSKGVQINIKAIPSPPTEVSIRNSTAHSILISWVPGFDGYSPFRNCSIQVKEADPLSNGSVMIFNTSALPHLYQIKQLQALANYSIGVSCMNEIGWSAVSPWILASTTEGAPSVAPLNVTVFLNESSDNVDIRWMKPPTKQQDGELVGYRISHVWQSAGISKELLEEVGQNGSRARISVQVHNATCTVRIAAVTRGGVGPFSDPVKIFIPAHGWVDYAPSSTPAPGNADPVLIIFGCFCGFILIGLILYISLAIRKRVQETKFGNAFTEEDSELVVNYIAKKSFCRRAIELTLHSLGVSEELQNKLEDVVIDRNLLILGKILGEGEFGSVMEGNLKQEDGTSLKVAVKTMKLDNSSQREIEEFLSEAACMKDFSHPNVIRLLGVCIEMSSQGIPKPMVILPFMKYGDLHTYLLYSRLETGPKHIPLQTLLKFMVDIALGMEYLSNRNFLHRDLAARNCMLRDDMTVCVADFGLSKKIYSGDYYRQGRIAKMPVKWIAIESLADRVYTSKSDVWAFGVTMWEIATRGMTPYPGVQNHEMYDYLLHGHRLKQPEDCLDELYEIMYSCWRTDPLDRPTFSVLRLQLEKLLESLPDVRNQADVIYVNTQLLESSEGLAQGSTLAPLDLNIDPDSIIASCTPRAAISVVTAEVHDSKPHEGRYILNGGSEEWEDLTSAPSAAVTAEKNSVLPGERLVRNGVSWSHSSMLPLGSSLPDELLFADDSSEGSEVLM

| Sequence | SH2 binding enrichment [1] | SH2 binding enrichment [2] | SH2 binding enrichment [3] | phosphorylation enrichment [4] | phosphorylation enrichment [5] | phosphorylation enrichment [6] | phosphorylation enrichment [7] | phosphorylation enrichment [8] | phosphorylation enrichment [9] | phosphorylation enrichment [10] | phosphorylation enrichment [11] | phosphorylation enrichment [12] | phosphorylation enrichment [13] | phosphorylation enrichment [14] | phosphorylation enrichment [15] | phosphorylation enrichment [16] |
| --- | --- | --- | --- | --- | --- | --- | --- | --- | --- | --- | --- | --- | --- | --- | --- | --- |
| HKLSYCEYDFE [BTK_Y40_Y40C] | 0.68 | 0.914 | 1.3 | 1.78 | 1.29 | 0.535 | 0.871 | 1.14 | 0.687 | 2.46 | 0.857 | 0.762 | 1.68 | 1.76 | 0.746 | 1.34 |
| HLELNYKEDEY [MME_Y502_Y497H] | 0.535 | 0.483 | 0.692 | 1.32 | 1.06 | 0.396 | 0.62 | 0.535 | 0.344 | 0.418 | 0.562 | 0.487 | 0.514 | 0.994 | 0.382 | 0.611 |
| HLQQSNLPRGT [TEX45_Y396_Y396N] | 0.583 | 0.748 | 0.837 | 0.639 | 0.689 | 0.467 | 0.703 | 0.451 | 0.279 | 0.42 | 0.447 | 0.491 | 0.445 | 0.757 | 0.534 | 0.644 |
| HNLDYYKKTTN [FGFR3_Y648] | 0.554 | 0.591 | 0.732 | 0.829 | 0.632 | 0.423 | 0.817 | 0.59 | 0.539 | 0.373 | 0.696 | 0.694 | 0.653 | 1.2 | 0.58 | 0.648 |
| HNLFSYPTKFE [MYO3A_Y1396_H1400Y_YF] | 1.56 | 0.503 | 0.706 | 0.869 | 1.44 | 0.569 | 0.881 | 0.507 | 0.562 | 0.703 | 0.474 | 0.671 | 0.565 | 1.29 | 0.684 | 0.752 |
| HNLYSYPTKYE [MYO3A_Y1396_H1400Y] | 0.657 | 1.31 | 0.757 | 2.65 | 0.606 | 14.8 | 2.34 | 16.7 | 17 | 2.62 | 10.6 | 0.699 | 5.43 | 0.958 | 8.88 | 0.683 |
| HNMPIYEGFAL [ACTA1_Y168_V165M_YF] | 0.847 | 0.431 | 0.607 | 1.44 | 0.859 | 14.7 | 29.2 | 32.9 | 26.7 | 13.2 | 24.3 | 0.704 | 21.5 | 5.34 | 15.6 | 0.786 |
| HNQDGYSYLSR [LDLR_Y845_P848L] | 2.08 | 11.7 | 0.698 | 0.478 | 0.679 | 0.719 | 0.551 | 0.889 | 0.522 | 0.554 | 0.527 | 0.879 | 0.624 | 0.681 | 0.793 | 0.658 |
| HPWPQYTTRAP [FNDC1_Y1281] | 0.99 | 0.594 | 1.12 | 0.628 | 0.846 | 0.546 | 0.697 | 0.594 | 0.454 | 0.561 | 0.316 | 0.421 | 0.554 | 0.603 | 0.572 | 0.54 |
| HRERPYGGGGG [FUS_Y526_R521H] | 1.05 | 1.18 | 1.17 | 0.487 | 0.386 | 0.557 | 0.556 | 0.265 | 0.407 | 0.523 | 0.483 | 0.553 | 0.454 | 0.714 | 0.439 | 0.449 |
| HSKGIYFVQLE [MGAT4B_Y262_Q257H_YF] | 1.45 | 1.08 | 1.53 | 1.87 | 2.27 | 3.31 | 1.31 | 0.911 | 0.711 | 1.65 | 0.853 | 1.38 | 1.03 | 2.53 | 1.12 | 1.75 |
| HSLLQYGGSAN [ANK1_Y624_R619H] | 0.661 | 0.367 | 0.862 | 0.579 | 0.394 | 0.386 | 0.472 | 0.583 | 0.447 | 0.357 | 0.421 | 0.316 | 0.427 | 0.481 | 0.505 | 0.531 |
| HSSPVYVGRVV [TGM2_Y219_R214H] | 1.22 | 0.539 | 0.806 | 1.85 | 1 | 1.5 | 1.17 | 1.47 | 1.63 | 1.57 | 2.08 | 1.37 | 3 | 1.97 | 6.86 | 1.24 |
| HVIKFYGACSQ [RET_Y791_L790F] | 0.773 | 0.546 | 0.833 | 1.5 | 1.3 | 0.545 | 1.4 | 0.851 | 0.576 | 0.564 | 0.956 | 0.871 | 0.759 | 1.75 | 0.779 | 1.08 |
| HVSISYDIPPT [GAB1_Y307] | 0.548 | 0.702 | 0.688 | 1.33 | 0.826 | 6.11 | 0.735 | 1.18 | 0.732 | 0.478 | 0.522 | 0.677 | 0.645 | 1.24 | 0.644 | 1.01 |
| HYEFKYVINAI [MAOA_Y268_C266F] | 0.69 | 0.582 | 0.868 | 1.75 | 1.55 | 0.572 | 1.28 | 0.782 | 0.74 | 0.536 | 1.05 | 0.471 | 0.481 | 1.72 | 0.489 | 0.964 |
